In IntAct's records for PubMed 31515488:

B1: SKA complex subunit 1 (Homo sapiens), Q96BD8 (parent)
chain: MASSDLEQLCSHVNEKIGNIKKTLSLRNCGQEPTLKTVLNKIGDEIIVINELLNKLELEIQYQEQTNNSLKELCESLEEDYKDIEHLKENVPSHLPQVTVTQSCVKGSDLDPEEPIKVEEPEPVKKPPKEQRSIKEMPFITCDEFNGVPSYMKSRLTYNQINDVIKEINKAVISKYKILHQPKKSMNSVTRNLYHRFIDEETKDTKGRYFIVEADIKEFTTLKADKKFHVLLNILRHCRRLSEVRGGGLTRYVIT
partner: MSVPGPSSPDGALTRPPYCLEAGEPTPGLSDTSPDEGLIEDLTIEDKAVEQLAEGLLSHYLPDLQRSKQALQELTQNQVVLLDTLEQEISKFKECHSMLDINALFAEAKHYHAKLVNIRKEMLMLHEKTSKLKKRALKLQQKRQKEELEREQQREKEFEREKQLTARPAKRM
B2: Cell growth regulator with RING finger domain protein 1 (Homo sapiens), Q99675 (parent)
chain: MAAVFLVTLYEYSPLFYIAVVFTCFIVTTGLVLGWFGWDVPVILRNSEETQFSTRVFKKQMRQVKNPFGLEITNPSSASITTGITLTTDCLEDSLLTCYWGCSVQKLYEALQKHVYCFRISTPQALEDALYSEYLYQEQYFIKKDSKEEIYCQLPRDTKIEDFGTVPRSRYPLVALLTLADEDDREIYDIISMVSVIHIPDRTYKLSCRILYQYLLLAQGQFHDLKQLFMSANNNFTPSNNSSSEEKNTDRSLLEKVGLSESEVEPSEENSKDCVVCQNGTVNWVLLPCRHTCLCDGCVKYFQQCPMCRQFVQESFALCSQKEQDKDKPKTL
partner: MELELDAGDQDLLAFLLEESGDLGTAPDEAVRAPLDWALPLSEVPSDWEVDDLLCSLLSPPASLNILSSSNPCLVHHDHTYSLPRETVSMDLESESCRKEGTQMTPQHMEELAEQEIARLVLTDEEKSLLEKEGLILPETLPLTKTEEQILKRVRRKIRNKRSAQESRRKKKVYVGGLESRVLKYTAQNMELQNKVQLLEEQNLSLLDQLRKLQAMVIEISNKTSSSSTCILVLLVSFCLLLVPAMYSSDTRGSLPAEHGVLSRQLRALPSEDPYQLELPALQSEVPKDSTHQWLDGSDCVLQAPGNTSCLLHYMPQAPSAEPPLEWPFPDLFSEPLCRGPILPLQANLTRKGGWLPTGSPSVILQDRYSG
B3: Calcium-binding and coiled-coil domain-containing protein 2 (Homo sapiens), Q13137 (parent)
chain: MEETIKDPPTSAVLLDHCHFSQVIFNSVEKFYIPGGDVTCHYTFTQHFIPRRKDWIGIFRVGWKTTREYYTFMWVTLPIDLNNKSAKQQEVQFKAYYLPKDDEYYQFCYVDEDGVVRGASIPFQFRPENEEDILVVTTQGEVEEIEQHNKELCKENQELKDSCISLQKQNSDMQAELQKKQEELETLQSINKKLELKVKEQKDYWETELLQLKEQNQKMSSENEKMGIRVDQLQAQLSTQEKEMEKLVQGDQDKTEQLEQLKKENDHLFLSLTEQRKDQKKLEQTVEQMKQNETTAMKKQQELMDENFDLSKRLSENEIICNALQRQKERLEGENDLLKRENSRLLSYMGLDFNSLPYQVPTSDEGGARQNPGLAYGNPYSGIQESSSPSPLSIKKCPICKADDICDHTLEQQQMQPLCFNCPICDKIFPATEKQIFEDHVFCHSL
partner: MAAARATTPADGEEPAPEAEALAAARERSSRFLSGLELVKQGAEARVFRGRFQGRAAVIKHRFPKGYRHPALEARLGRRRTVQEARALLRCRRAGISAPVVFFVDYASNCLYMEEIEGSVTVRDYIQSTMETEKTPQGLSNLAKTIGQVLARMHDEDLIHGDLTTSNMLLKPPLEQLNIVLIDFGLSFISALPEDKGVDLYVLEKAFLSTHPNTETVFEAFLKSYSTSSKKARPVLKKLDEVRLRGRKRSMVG
B4: Zinc finger CCHC domain-containing protein 10 (Homo sapiens), Q8TBK6 (parent)
chain: MATPMHRLIARRQAFDTELQPVKTFWILIQPSIVISEANKQHVRCQKCLEFGHWTYECTGKRKYLHRPSRTAELKKALKEKENRLLLQQSIGETNVERKAKKKRSKSVTSSSSSSSDSSASDSSSESEETSTSSSSEDSDTDESSSSSSSSASSTTSSSSSDSDSDSSSSSSSSTSTDSSSDDEPPKKKKKK
partner: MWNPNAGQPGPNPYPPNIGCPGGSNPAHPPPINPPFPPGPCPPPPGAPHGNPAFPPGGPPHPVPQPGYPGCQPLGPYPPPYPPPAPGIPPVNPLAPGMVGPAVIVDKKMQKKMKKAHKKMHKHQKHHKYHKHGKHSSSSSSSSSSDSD
B5: NF-kappa-B inhibitor delta (Homo sapiens), Q8NI38 (parent)
chain: MEAGPWRVSAPPSGPPQFPAVVPGPSLEVARAHMLALGPQQLLAQDEEGDTLLHLFAARGLRWAAYAAAEVLQVYRRLDIREHKGKTPLLVAAAANQPLIVEDLLNLGAEPNAADHQGRSVLHVAATYGLPGVLLAVLNSGVQVDLEARDFEGLTPLHTAILALNVAMRPSDLCPRVLSTQARDRLDCVHMLLQMGANHTSQEIKSNKTVLHLAVQAANPTLVQLLLELPRGDLRTFVNMKAHGNTALHMAAALPPGPAQEAIVRHLLAAGADPTLRNLENEQPVHLLRPGPGPEGLRQLLKRSRVAPPGLSS
partner: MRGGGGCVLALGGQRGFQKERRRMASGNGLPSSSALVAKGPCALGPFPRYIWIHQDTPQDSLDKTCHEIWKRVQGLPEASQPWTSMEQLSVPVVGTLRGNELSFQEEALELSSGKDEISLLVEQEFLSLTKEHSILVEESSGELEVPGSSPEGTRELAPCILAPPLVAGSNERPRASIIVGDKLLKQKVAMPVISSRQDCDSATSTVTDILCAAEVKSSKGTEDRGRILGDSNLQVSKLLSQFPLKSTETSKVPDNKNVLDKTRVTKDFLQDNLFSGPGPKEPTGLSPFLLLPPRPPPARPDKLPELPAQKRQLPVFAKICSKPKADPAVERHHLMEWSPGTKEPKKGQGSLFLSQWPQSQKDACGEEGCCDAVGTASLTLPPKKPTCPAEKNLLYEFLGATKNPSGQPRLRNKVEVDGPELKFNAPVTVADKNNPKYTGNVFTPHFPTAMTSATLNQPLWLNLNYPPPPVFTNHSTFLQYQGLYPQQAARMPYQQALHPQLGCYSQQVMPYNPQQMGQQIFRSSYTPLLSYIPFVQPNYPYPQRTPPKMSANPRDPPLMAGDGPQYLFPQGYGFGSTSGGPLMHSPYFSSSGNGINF
B6: U3 small nucleolar RNA-associated protein 14 homolog C (Homo sapiens), Q5TAP6 (parent)
chain: MNVNQVAENLALSHQEELVDLPKNYPLSENEDEGDSDGERKHQKLLEAIISLDGKNRRKLAERSEASLKVSEFSVSSEGSGEKLGLADLLEPVKTSSSLATVKKQLNRVKSKKVVELPLNKEKIEQIHREVAFSKTSQVLSKWDPIILKNQQAEQLVFPLGKEQPAIAPIEHALSGWKARTPLEQEIFNLLHKNKQPVTDPLLTPMEKASLQAMSLEEAKMHRAELQRARALQSYYEAKARKEKKIKSKKYHKVVKKGKAKKALKEFEQLQKVNPTVALEEMEKIENARMMERMSLKHQNSGKWAKSKAIMAKYDLEARQAMQEQLAKNKELTQKLQVASESEEEEGGTEVEELLVPHVANEVQMNVDGPNPWMFRSCTSDTKEAATQEDPEQVPELAAHEVSASEAEERPVAEEEILLREFEERQSLRKRSELNQDAEPASSQETKDSSSQEVLSELRALSQKLKEKHQSRKQKASSEGTVPQVQREEPAPEEAEPLLLQRSERVQTLEELEELGKEDCFQNKELPRPVLEGQQSERTPNNRPDAPKEKKEKEQLINLQNFLTTQSPSVRSLAVPTIIEELEDEEERDQRQMIKEAFAGDDVIRDFLKEKREAVEASKPKDVDLTLPGWGEWGGVGLKPSAKKRRQFLIKAPEGPPRKDKNLPNVIISEKRNIHAAAHQVQVLPYPFTHHRQFERTIQTPIGSTWNTQRAFQKLTTPKVVTKPGHIIKPIKAEDVGYQSSSRSDLPVIQRNPKRITTRHNKEEKL
partner: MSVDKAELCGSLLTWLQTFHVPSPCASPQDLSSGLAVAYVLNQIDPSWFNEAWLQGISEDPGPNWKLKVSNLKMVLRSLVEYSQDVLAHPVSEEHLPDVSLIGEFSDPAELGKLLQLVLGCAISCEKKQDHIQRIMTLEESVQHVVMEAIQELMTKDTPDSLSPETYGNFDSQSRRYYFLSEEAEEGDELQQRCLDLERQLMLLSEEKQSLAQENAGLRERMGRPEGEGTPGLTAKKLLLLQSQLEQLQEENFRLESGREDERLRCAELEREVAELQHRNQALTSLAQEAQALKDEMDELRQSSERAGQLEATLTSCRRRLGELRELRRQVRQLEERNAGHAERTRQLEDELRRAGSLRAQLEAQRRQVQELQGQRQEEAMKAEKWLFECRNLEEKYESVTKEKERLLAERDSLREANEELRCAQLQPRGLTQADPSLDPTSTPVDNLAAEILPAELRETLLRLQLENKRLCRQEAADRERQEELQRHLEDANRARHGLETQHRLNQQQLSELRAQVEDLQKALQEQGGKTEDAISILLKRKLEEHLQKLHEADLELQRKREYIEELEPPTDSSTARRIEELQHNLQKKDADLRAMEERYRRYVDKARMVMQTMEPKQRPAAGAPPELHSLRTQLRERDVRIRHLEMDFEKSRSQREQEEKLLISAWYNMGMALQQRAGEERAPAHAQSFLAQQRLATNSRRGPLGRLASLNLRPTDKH

Variants of: B1
Details: with bl1s6_human BLOC1S6, Q9UL45
In the case of V230M, the “effect of a mutation on the interaction” value is reported as “with no effect”.

Variants of: B2
Details: with creb3_human CREB3, O43889
R185W was tested, and the “effect of a mutation on the interaction” value was “disrupting interaction strength”.

Variants of: B3
Details: with prpk_human TP53RK
For V248A, the “effect of a mutation on the interaction” value was “with no effect”.

Variants of: B4
Details: with prr13_human PRR13, Q9NZ81
For S153P, the “effect of a mutation on the interaction” value was “with no effect”.

Variants of: B5
Details: with ca094_human C1orf94, Q6P1W5
V29A was tested, and the “effect of a mutation on the interaction” value was “with no effect”.

Variants of: B6
Details: with hook2_human HOOK2, Q96ED9
For G85V, the “effect of a mutation on the interaction” value was “with no effect”.
